From patent US20110052585A1 (Sanofi, published 2011)

Target: T1, rhIL-23 (human, UniProt Q9NPF7 20-189; P29460 23-328)
T1 construct: Recombinant human IL-23 coated on immunoassay plates; also called IL-23 ligand
T1 sequence (looked up) 1: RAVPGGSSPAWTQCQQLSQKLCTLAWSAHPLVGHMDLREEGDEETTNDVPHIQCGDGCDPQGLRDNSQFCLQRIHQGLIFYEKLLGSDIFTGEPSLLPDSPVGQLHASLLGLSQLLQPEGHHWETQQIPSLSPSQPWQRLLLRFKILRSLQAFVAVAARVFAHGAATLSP
T1 sequence (looked up) 2: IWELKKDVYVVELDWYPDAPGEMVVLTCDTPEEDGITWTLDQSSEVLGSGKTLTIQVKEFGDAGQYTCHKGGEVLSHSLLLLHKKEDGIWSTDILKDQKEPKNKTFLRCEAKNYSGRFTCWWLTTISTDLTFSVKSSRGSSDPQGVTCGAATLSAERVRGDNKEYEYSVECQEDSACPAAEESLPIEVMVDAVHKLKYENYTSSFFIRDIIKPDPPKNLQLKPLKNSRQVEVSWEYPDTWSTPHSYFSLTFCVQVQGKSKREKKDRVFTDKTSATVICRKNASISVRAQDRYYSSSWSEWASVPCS
Test: ELISA, ligand coated on plate, conditioned medium with soluble receptor
Procedure: Ligand Binding Assays: Conditioned media containing […] were generated in transfected or virally-infected 293 cells. Receptor concentrations in collected media were determined by ELISA and Western blot. Ligand binding assays were performed on immunoassay plates coated with target ligand rhIL-17 or rhIL-23. Typically conditioned media containing serial dilutions of soluble receptor were incubated with immobilized ligand 1-2 hours at room temperature. Unbound ligand was washed away and bound protein was detected and quantified with receptor-specific detection antibodies, as is performed in an ELISA.
In order to test the ability of the soluble IL-17 and IL-23 receptor fusions to bind to their respective ligands, the following experiments were conducted. In one experiment, the ability of the soluble receptors to bind immobilized ligands was explored. Conditioned media for each receptor was generated from Ad-infected A459 cells and quantified by ELISA as described. Binding was measured on ELISA plates pre-coated with IL-23 or IL-17 ligand. Relative binding was compared to purchased receptor/Fc chimeras (R&D Systems, Minneapolis, Minn.). The control IL-17R/Fc from R&D contains human IL-17R(Met1-Trp320) fused to IEGRMD and human IgG1(Pro100-Lys330). […]

B1: sIL23R-9gly-CH3 (Fc fusion)
chain: GITNINCSGHIWVEPATIFKMGMNISIYCQAAIKNCQPRKLHFYKNGIKERFQITRINKTTARLWYKNFLEPHASMYCTAECPKHFQETLICGKDISSGYPPDIPDEVTCVIYEYSGNMTCTWNAGKLTYIDTKYVVHVKSLETEEEQQYLTSSYINISTDSLQGGKKYLVWVQAANALGMEESKQLQIHLDDIVIPSAAVISRAETINATVPKTIIYWDSQTTIEKVSCEMRYKATTNQTWNVKEFDTNFTYVQQSEFYLEPNIKYVFQVRCQETGKRYWQPWSSPFFHKTPETVPQVTSKAFQHDTWNSGLTVASISTGHLTGGGGGGGGGQPREPQVYTLPPSRDELTKNQVSLTCLVKGFYPSDIAVEWESNGQPENNYKTTPPVLDSDGSFFLYSKLTVDKSRWQQGNVFSCSVMHEALHNHYTQKSLSLSPGK
notes: Fusion to the CH3 domain of human IgG1 only, with no hinge or CH2; It was tested as conditioned medium from adenovirus-infected cells; also called hIL-23R-9gly-CH3 chimera; soluble IL-23r
B1: binds.
